The results in this text go back to paper PMC6860931, “Role of the malic enzyme in metabolism of the halotolerant methanotroph Methylotuvimicrobium alcaliphilum 20Z” (PLoS ONE, 2019).

Substrate in series [1]: O=C(O)C[C@H](O)C(=O)O
Briefly: purified protein. The note with it: NAD+ as co-substrate, assay mixture 0.3 mM NAD+, 2.5 mM MgCl2, 50 mM Tris-HCl, pH 9.0, 30°C.

Substrate in series [2]: NC(=O)c1ccc[n+]([C@@H]2O[C@H](COP(=O)(O)OP(=O)(O)OC[C@H]3O[C@@H](n4cnc5c(N)ncnc54)[C@H](O)[C@@H]3O)[C@@H](O)[C@H]2O)c1
Put plainly: purified protein. In kind it is biochemical, Methylotuvimicrobium alcaliphilum. Conditions: malate as co-substrate, assay mixture 10 mM malate, 2.5 mM MgCl2, 50 mM Tris-HCl, pH 9.0, 30°C, varied: cofactor.

B1: Mae (malic enzyme from Mtm. alcaliphilum 20Z) (Methylotuvimicrobium alcaliphilum 20Z) (protein)
chain: MTAMSKTPLYIPYAGPALLEMPLLNKGCAFSKEERQTFNLTGLLPPRYETIEEQVQRAYLQYSSFRNAINKHIYLRSIQDNNETLFYRLLQDHLPEMLPIIYTPTVGDACEQFSDIYRSSRGLFISYVDRQQIDDILRNTTKRNVKIIVVTDGERVLGLGDQGIGGMGISIGKLSLYTACGGISPAYTLPVVLDVGTNNEKLLQDPMYMGERHRRIPQAEYDAFIDFFLQAVKRRWPDVIVQFEDFAQPNAMPILQRYRDQLCCFNDDIQGTAAVTVGTLLAACRVKNRKLSEQRVVFVGAGSAGCGIAEQVIAQMRTEGLSDREARHRVYMVDRFGLLTESMTGLRDFQQKLVQVSNRLEDWSIESDYPSLLEVIQYAKPTVLIGVSGQHGIFTETVIRTMTQGCDWPIIFPLSNPPRQVEATPEQIIEWTEGRVLLAAGSPFPPVEYGGKRYDVTQCNNSYIFPGIGLGVIAVQARRISDEMLIAASETLAAASPLANTGQGELLPPLTELPELSKRIAFAVGKVALKQNLALEISDEQLLKSIEENFWQPVYRHYKRVCF
notes: full-length, 1689 bp gene, pET22b(+) NdeI/XhoI, His6-tagged, E. coli BL21 (DE3), Ni-NTA
Turning to B1, the Km stood at 5500 ± 800 µM in “purified protein [1]” and 57 ± 5 µM in the series “purified protein [2]”.
